Assay results published in patent US20240287161A1 (NATIONAL UNIVERSITY CORPORATION TOTTORI UNIVERSITY, published 2024).

B1: NT-193, human IgG3 subclass (antibody, V domains shown)
VH: EVQLQQWGAGLLKPSETLSLTCAVYGGSFSGYYWSWIRQPPGKGLEWIGEINHSGSTNYNPSLKSRVTISVDTSKNQFSLKLSSVTAADTAVYYCARGWDLDYYYGMDVWGQGTTVTVSS
VL: DIRMTQSPSAMSASVGDRVTVTCRASQGIGNYLAWFQLKPGKVPKRLIYAASSLQSGVPARFSGGGSGTEFTLTISSLQPEDFATYYCLQHGFLPWTFGQGTKLEIK
B2: NT-108 (recombinant human IgG1/kappa antibody) (antibody, V domains shown)
VH: EVQLQQSGPGLVKPSQTLSLTCSISGDSVSSNSAAWNWIRQSPSRGLEWLGRTYYRSKWYNDYAGTVKSRIAINPDTSKNQFSLHLNSVTPEDTAVYFCARVISVAGYAFDIWGQGTMVTVSS
VL: EIVLTQSPGTLSLSPGERATLSCRASQSVSSTFLAWYQQKPGQAPRLLIYGASYMATGIPDRFSGSGSGTDFTLTISRLEPEDFAVYYCQQYGSSLTFGGGTKLEIK

Assays:
[1] = biological target: T1, HCoV-NL63 trimeric S protein (amino acids 22-1293) with T4 foldon, histidine tag and strep-tag (HCoV-NL63, UniProt Q6Q1S2 23-1293); test: ELISA on coated S-trimeric antigen, anti-human IgG-HRP [Human IgG3, NT-193]
T1 sequence: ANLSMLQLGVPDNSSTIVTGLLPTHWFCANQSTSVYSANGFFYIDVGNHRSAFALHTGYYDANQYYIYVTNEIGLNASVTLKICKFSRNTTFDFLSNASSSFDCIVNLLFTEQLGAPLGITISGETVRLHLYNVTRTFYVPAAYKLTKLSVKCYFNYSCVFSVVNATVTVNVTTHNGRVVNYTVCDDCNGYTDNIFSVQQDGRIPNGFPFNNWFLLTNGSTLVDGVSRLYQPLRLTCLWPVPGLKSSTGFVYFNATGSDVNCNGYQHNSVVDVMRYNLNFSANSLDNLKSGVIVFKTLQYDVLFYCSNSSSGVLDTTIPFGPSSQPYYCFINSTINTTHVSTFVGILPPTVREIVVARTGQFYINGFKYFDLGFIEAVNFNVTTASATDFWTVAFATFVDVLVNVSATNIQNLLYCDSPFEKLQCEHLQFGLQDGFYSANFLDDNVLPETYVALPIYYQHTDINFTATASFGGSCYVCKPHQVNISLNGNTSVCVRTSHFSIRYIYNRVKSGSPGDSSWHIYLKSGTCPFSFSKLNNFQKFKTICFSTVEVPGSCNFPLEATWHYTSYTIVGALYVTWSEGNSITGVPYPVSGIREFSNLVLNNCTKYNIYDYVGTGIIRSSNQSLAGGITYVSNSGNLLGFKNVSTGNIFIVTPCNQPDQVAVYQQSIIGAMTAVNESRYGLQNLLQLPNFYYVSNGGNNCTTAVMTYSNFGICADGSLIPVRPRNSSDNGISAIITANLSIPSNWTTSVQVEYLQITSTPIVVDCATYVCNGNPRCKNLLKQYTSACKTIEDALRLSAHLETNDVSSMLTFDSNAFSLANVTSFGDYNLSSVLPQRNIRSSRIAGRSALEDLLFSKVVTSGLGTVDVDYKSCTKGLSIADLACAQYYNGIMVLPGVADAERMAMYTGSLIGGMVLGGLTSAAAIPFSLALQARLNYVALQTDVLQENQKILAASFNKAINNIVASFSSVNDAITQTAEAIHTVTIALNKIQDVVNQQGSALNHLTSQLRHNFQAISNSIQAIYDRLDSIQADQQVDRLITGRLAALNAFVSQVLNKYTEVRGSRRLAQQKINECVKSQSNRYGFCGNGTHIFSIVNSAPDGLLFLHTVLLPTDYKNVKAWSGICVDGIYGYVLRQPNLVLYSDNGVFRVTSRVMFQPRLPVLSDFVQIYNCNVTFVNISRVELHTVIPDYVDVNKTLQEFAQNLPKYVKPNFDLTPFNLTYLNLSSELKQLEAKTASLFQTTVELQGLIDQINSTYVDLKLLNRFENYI

[2] = biological target: T2, HCoV-OC43 trimeric S protein (amino acids 12-1299) with T4 foldon, histidine tag and strep-tag (HCoV-OC43, UniProt P36334 12-1291); test: as above
T2 chain: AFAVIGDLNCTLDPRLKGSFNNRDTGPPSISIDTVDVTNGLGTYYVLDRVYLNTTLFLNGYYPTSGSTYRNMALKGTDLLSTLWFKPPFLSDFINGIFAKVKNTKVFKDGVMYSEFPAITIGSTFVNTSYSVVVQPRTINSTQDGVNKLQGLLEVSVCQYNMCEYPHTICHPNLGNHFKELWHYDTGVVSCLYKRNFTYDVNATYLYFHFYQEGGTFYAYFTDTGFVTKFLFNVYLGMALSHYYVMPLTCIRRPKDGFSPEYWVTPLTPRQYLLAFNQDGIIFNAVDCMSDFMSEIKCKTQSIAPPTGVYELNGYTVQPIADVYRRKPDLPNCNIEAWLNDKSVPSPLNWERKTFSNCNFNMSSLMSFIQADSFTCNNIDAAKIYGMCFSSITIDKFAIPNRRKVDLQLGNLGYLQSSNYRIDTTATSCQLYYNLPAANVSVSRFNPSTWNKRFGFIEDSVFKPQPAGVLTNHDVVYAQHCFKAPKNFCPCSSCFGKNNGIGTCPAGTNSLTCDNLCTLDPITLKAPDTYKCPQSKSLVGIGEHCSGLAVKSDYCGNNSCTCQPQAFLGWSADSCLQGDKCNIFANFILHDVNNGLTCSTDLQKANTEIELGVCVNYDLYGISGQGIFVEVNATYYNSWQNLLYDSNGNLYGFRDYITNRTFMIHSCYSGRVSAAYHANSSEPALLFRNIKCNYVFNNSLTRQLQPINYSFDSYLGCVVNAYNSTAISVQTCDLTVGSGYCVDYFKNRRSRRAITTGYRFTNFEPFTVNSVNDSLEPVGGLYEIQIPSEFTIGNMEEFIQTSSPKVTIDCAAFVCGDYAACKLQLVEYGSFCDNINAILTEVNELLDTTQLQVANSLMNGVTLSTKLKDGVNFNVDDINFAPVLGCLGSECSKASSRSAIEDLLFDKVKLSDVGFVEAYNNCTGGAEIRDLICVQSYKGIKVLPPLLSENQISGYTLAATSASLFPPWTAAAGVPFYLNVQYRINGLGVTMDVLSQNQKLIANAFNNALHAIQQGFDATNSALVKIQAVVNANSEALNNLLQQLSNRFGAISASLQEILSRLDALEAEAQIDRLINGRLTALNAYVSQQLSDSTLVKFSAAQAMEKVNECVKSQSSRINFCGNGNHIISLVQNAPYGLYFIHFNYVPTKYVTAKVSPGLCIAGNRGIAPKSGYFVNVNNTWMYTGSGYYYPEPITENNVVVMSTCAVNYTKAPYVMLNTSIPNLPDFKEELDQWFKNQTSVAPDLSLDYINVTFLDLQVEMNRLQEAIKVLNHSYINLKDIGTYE

[3] = biological target: T2, HCoV-OC43 trimeric S protein (amino …); test: ELISA on coated S-trimeric antigen, anti-human IgG-HRP [Human IgG1, NT-108]

| Binder | binding result [1] | binding result [2] | binding result [3] |
| --- | --- | --- | --- |
| B1 | no binding (tested: 1000 ng/ml) | no binding (tested: 1000 ng/ml) | – |
| B2 | – | – | no binding (tested: 1000 ng/ml) |
